Results reported in the supplement of paper PMC12764529.
± gives the half width of the 95% confidence interval.

What was measured:
[1] = folding stability dG unfold from trypsin proteolysis; higher = more stable
How it was run: (§1)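 K50 was inferred by Bayesian fitting of sequencing counts obtained after protease digestion of designed mini-proteins. Unfolding free energy was derived by comparison with a sequence-predicted unfolded-state K50 and a shared folded-state K50, for each protease or both combined. The mini-proteins were under 80 residues, had no cysteine, were carried in a PA-tagged cDNA display construct, and were kept only if AlphaFold2 dimer inter-PAE exceeded 15.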

[2] = folding stability dG unfold from chymotrypsin proteolysis; higher = more stable
How it was run: as §1

[3] = folding stability dG unfold (combined trypsin and chymotrypsin); higher = more stable
How it was run: as §1

Row | Sequence | folding stability dG unfold [1] [kcal/mol] | folding stability dG unfold [2] [kcal/mol] | folding stability dG unfold [3] [kcal/mol]
1 | SAGGSAGGSAWMYRIKIEIYSNGKKHKYEFWIPEDNIDEVADQLPPGYKIKITDIEPWEPNSAGGSAGGSAG [r3_195_TrROS] | 1.82 ± 0.022 | 2.73 ± 0.049 | 2.46 ± 0.14
2 | SSPGKITTYEVTLTLPGPRPMTSTVDPSGVMTATVPDGTKITATIVPGPGTLTITTTFPDGTTSTSTISASA [r9_99_JUSTAS] | 1.26 ± 0.061 | 1.21 ± 0.058 | 1.26 ± 0.074
3 | SAGGSAGGSMTWTETVITLKGNGSETTTYKAKVTEDPSSDTVLVTLPDGTPLTIPKSQVTINSSAGGSAGGS [r12_256_JUSTAS] | -0.131 ± 0.18 | 0.668 ± 0.14 | 0.399 ± 0.096
4 | SAGGMPLRFRIEVYKTETYYDPSTGKEVTKVEPLPELEIEAPPNTPLEAILAALDLPEDYYISRIGVESAGG [r13_716_TrMRF] | 2.06 ± 0.065 | 2.55 ± 0.026 | 2.43 ± 0.049
5 | SAGGSAGGSAPNLKLKIKLDIHVFPDGWLYVSTKIEIENPGKPVEFTIMFRFPIPPNEPAPSAGGSAGGSAG [r3_383_TrROS] | 3.85 ± 0.27 | 5.35 ± 0.15 | 5.16 ± 0.27
6 | SAGGSAGGSAGGSAKSPNGDELPPGQPVEEHTIRPPVKPTITIKMYADPDAGKMKFELFSAGGSAGGSAGGS [r4_13_TrROS] | 0.225 ± 0.24 | 0.446 ± 0.31 | 0.533 ± 0.6
7 | SAGGSAGGSAGGKKIIIVVPKEEMTEEELKKLIEELPPGEEIEIEIIVVPPPPPPPKEKKSAGGSAGGSAGG [r7_979_TrROS_Hall] | 0.385 ± 0.077 | 1.92 ± 0.23 | 1.45 ± 0.27
8 | SAGGSAGGSAMITYTAPGGTPVTVTPDPVTGTLSATFPDGSVITAPVVGDTIPVTVVPPAAVSAGGSAGGSA [r18_405_JUSTAS] | 1.37 ± 0.023 | -0.295 ± 0.11 | 0.851 ± 0.042
9 | SAGPKAEIINKNGKKISFSAKNIKITSYPEKGILTGIIPKKNKKIEIKVDNNKITLIVYDGGKYKEFPISAG [r5_786_TrMRF] | 2.07 ± 0.071 | 3.97 ± 0.22 | 2.21 ± 0.55
10 | SAGGSAGGSAGMVEVEVRKTENGNYVVTTTTVTTSPVTTPNPYTRTVTTVTTSTTVIPATSAGGSAGGSAGG [r11_403_JUSTAS] | -0.758 ± 0.3 | -0.101 ± 0.23 | -0.187 ± 0.39
11 | SAGGSAGGSAGGEEKTEEEKRKEERLKPAPPLVLELDVEVDGKLYRFRLVNGKLEIEELPSAGGSAGGSAGG [r7_156_TrROS_Hall] | 1.71 ± 0.047 | 2.98 ± 0.038 | 2.56 ± 0.11
12 | SAGGMTIVEVEYTAYDLNSNKSVVVKAYKDPSTGKMTITSSDGVEGEFDPVTKTISLPRGSKSVTLGSAGGS [r16_743_JUSTAS] | 0.266 ± 0.074 | 0.623 ± 0.11 | 0.521 ± 0.081
13 | SAGGSAGGSAGNKYLIKVKKKNGNKSEELEIEVEDNPEIAEKIAEELKKKGNIVSVEIKKASAGGSAGGSAG [r3_310_TrMRF] | 0.761 ± 0.1 | 0.403 ± 0.21 | 0.66 ± 0.23
14 | IVISPSMLRDARRQGIPKELLKKAKNVIIWSSNGNPEWAKELKEWPGVKKIKPVPPGDPDKQKDADHVIHFS [r1_248_TrROS] | -0.554 ± 0.55 | -0.673 ± 0.49 | -0.482 ± 0.29
15 | SAGGSAGGSGIKITEYKINPETGTIEKTEIYIKPIPNTNKLKIEKKTKSIPILPDQKPDLSLDSAGGSAGGS [r12_700_TrMRF] | -0.235 ± 0.18 | 0.809 ± 0.36 | 0.412 ± 0.27
16 | SAGKKLIEAAKNNKKAVIPVKYKKYKITEKYKTKDGGTKYKAKLIEEKTYNVKLIKVDPKTGKIIIDPKSAG [r5_5_TrMRF] | 1.07 ± 0.13 | 1.82 ± 0.28 | 1.75 ± 0.92
17 | SAGGMEEVIEEAIEAAKKGENVTITLPASVDPEVVLKALEEASGLKVTPISVTPLPDGTLRIEVKIESAGGS [r16_318_JUSTAS] | 4.24 ± 0.19 | 4.24 ± 0.14 | 5.08 ± 0.54
18 | SPPNFEVKEVEIPVPWEEIKELLPPGFTDIEPTGDRWTLHFKHPGYFVMIEIQWDPEDNQFPVKISVFKMSA [r9_604_TrROS] | 2.59 ± 0.11 | 3.76 ± 0.054 | 3.35 ± 0.19
19 | SAGGSAGGSAGSPLEEALAEARATGGPVTIRLPDGSEVVITVTEDEGELRVEVRSAAELGSAGGSAGGSAGG [r17_463_JUSTAS] | 0.99 ± 0.027 | 0.911 ± 0.042 | 1 ± 0.099
20 | SAGGERERLLTLEVEIDVPPGVSPEEIAARLAALLPPGAEIERVEIRYDPATRKITVRVVIRLPEGLSAGGS [r16_396_TrROS_Hall] | 3.59 ± 0.25 | 2.78 ± 0.093 | 3.25 ± 0.29
21 | SAGGKKITVTVTRERTEDGTLRVTVTLRDEETGRTLTLTLTVPRENEEEVEEAAKRLAEELAADPELESAGG [r13_968_TrROS_Hall] | 2.82 ± 0.064 | 4.72 ± 0.12 | 4.42 ± 0.17
